In patent US20130230504A1 (CHILDREN S MEDICAL CENTER, published 2013):

Experiments:
[1] = target: VEGF165 receptor (VEGF165R) (human) (UniProt O14786); assay: competition with 125I-VEGF165 (5 ng/ml) on HUVEC at 2 ug/ml GST-Ex 7, gamma counting
[2] = target: VEGF165 receptor (VEGF165R) (human) (UniProt O14786); assay: competition with 125I-VEGF165 (5 ng/ml) on MDA-MB-231 cells (VEGF165R only), increasing GST-Ex 7+8, gamma counting
[3] = target: VEGF165 receptor (VEGF165R) (human) (UniProt O14786); assay: competition with 125I-VEGF165 (5 ng/ml) on HUVEC (KDR/Flk-1 and VEGF165R), increasing GST-Ex 7+8, gamma counting
KDR/Flk-1 = KDR/Flk-1 (human, UniProt P35968 20-1356); assay: cell-based or functional assay
Sequence of KDR/Flk-1 (P35968 20-1356): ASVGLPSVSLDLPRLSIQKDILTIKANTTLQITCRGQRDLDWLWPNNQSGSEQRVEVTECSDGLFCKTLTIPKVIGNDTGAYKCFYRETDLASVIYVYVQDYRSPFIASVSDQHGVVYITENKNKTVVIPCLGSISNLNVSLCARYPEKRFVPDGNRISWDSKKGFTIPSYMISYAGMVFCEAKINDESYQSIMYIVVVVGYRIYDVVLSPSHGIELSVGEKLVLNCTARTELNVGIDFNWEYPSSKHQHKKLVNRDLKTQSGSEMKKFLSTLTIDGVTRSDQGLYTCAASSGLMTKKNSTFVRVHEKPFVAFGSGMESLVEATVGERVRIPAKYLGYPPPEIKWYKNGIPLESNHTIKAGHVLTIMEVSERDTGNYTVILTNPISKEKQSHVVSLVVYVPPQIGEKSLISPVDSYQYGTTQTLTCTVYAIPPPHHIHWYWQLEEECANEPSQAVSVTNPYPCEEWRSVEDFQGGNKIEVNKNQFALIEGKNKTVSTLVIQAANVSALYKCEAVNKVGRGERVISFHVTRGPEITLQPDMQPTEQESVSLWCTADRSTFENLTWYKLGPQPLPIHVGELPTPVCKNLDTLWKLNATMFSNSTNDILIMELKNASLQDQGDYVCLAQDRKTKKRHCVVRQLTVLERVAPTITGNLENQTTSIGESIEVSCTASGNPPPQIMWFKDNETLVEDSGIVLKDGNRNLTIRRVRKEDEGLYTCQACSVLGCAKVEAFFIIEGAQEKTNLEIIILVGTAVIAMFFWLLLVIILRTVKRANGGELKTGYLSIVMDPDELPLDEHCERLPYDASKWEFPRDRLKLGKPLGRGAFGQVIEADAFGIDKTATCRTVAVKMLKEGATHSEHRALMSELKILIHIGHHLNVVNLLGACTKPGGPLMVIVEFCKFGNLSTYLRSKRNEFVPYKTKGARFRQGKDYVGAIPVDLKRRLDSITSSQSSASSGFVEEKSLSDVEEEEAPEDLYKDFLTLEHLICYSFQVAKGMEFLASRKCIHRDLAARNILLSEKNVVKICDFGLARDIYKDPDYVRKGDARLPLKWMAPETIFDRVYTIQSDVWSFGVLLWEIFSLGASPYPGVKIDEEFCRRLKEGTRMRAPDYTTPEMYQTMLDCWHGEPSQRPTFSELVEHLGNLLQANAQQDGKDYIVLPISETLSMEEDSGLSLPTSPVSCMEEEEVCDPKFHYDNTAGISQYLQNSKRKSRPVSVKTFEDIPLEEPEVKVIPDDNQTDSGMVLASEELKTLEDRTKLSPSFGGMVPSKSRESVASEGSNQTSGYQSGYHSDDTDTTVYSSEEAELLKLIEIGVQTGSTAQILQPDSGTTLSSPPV

Sequence of VEGF165 receptor (VEGF165R) (human) (O14786 22-923): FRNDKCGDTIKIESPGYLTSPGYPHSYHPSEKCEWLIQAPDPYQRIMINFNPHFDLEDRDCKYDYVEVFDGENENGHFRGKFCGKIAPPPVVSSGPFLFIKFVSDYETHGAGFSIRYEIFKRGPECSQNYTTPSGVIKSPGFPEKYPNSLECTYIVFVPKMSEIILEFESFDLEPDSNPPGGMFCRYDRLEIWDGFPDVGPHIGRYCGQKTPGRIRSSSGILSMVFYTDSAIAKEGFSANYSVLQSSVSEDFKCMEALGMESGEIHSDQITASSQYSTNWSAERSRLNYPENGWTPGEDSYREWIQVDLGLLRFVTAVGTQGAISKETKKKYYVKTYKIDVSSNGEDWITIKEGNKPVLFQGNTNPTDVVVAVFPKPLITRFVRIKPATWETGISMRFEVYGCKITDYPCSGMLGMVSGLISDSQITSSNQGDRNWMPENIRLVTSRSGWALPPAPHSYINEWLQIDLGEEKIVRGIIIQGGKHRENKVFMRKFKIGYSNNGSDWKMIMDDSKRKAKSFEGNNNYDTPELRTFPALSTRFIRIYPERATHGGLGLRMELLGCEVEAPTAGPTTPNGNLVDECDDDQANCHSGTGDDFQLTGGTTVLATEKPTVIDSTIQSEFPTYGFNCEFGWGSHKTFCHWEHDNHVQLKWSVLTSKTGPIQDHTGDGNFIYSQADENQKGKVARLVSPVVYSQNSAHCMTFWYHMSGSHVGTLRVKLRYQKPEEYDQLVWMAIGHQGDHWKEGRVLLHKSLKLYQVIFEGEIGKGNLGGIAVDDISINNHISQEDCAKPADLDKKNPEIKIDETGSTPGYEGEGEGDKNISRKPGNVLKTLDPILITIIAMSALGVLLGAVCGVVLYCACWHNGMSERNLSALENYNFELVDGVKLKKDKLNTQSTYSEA

**Q.** With “GST-Ex 7 fusion protein (GST fused to the 44 amino acids encoded by VEGF exon 7 plus the first cysteine of exon 8) (from UniProt P08515 1-218)” as the molecule, how does the percent inhibition of 125I-VEGF165 binding [1] read?
**A.** 80%

**Q.** “GST-Ex 7+8 fusion protein (GST fused to the VEGF165 exons 7- and 8-encoded peptide) (from UniProt P15692 187-191)” was tested. Which percent inhibition of 125I-VEGF165 binding [2] did it give?
**A.** 97 to 98%

**Q.** What about the percent inhibition of 125I-VEGF165 binding [3] of the same molecule?
**A.** 85 to 95%

B1: Human recombinant VEGF121 (ligand, UniProt P15692-9 27-147, looked up)
chain: APMAEGGGQNHHEVVKFMDVYQRSYCHPIETLVDIFQEYPDEIEYIFKPSCVPLMRCGGCCNDEGLECVPTEESNITMQIMRIKPHQGQHIGEMSFLQHNKCECRPKKDRARQEKCDKPRR
modifications: radioiodinated (125I, IODO-BEADS) in the cross-linking assays
**Q.** How did the “fold decrease in VEGF121-mediated HUVEC proliferation with 15 ug/ml GST-Ex 7+8” value (KDR/Flk-1) turn out when B1 was run?
**A.** ~2 fold
